From patent publication US20230106715A1 (BIOSION, published 2023)
Read-outs that look alike come from different tables or passages of the source.

Tests used:
[1] = biological target: T1, human Siglec15 on human-siglec15-2D3-1E1 cells (human, UniProt Q6ZMC9 20-328); assay: cell based binding FACS on human-siglec15-2D3-1E1 cells
T1 construct: whole, on cells; Transfected HEK-293 cells; also called cell surface human Siglec15
T1 sequence (looked up): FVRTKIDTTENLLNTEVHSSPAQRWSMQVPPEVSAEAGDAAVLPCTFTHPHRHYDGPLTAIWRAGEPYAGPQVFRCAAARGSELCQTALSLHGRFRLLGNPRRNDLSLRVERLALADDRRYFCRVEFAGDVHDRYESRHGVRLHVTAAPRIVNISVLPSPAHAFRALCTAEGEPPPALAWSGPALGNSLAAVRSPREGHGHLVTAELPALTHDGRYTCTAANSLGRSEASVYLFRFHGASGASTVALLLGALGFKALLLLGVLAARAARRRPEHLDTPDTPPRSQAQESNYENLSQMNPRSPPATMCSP
Procedure: The binding activities of the anti-Siglec15 antibodies to cell surface Siglec15 were tested by flow cytometry (FACS), using in-house prepared human-siglec15-2D3-1E1 cells expressing human Siglec15 (amino acid residues Met1-Pro328 of uniprot #Q6ZMC9) on cell membranes. The human-siglec15-2D3-1E1 cells were prepared by transfecting HEK-293 cells (ATCC #CRL-1573) with pCMV-T-P plasmids inserted with human Siglec15 coding sequence between EcoRI and XbaI sites, following the instruction of lipofectamine 3000 transfection reagent (Thermo Fisher). The human-siglec15-2D3-1E1 cells were harvested from cell culture flasks, washed twice and re-suspended in phosphate buffered saline (PBS) containing 2% v/v Fetal Bovine Serum (FACS buffer). 2×10⁵ cells per well in 96 well-plates were incubated in 100 μL serially diluted anti-Siglec15 antibodies or controls (starting at 66.67 nM, 5-fold serial dilution) in FACS buffer for 40 minutes on ice. […] Following a 40-minute incubation at 4° C. in dark, cells were washed three times and re-suspended in FACS buffer. Fluorescence was measured using a Becton Dickinson FACS Canto II-HTS equipment. Data was analyzed using Graphpad Prism software and EC₅₀ values were reported.

[2] = biological target: T2, recombinant human Siglec15-his protein (human, UniProt Q6ZMC9 20-263); assay: SPR Biacore T200, antibody captured by anti-human IgG, antigen as analyte, 1:1 fit
T2 construct: In house made; Biotin-labeled in the capture ELISA
T2 sequence: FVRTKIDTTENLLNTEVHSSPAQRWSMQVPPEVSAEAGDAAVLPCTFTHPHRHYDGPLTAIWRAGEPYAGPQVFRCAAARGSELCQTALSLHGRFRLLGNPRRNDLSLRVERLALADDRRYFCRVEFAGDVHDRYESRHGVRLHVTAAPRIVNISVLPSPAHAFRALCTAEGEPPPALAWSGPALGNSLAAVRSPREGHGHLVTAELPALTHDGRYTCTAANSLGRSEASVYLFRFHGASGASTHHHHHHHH
Procedure: (§1) Briefly, goat anti-human IgG (GE healthcare, Cat #BR100839, Human Antibody Capture Kit) was covalently linked to a CM5 chip (carboxy methyl dextran coated chip, GE healthcare, Cat #BR-1005-30) via primary amines, using a standard amine coupling kit provided by Biacore (GE healthcare, Pittsburgh, Pa., USA). Un-reacted moieties on the biosensor surface were blocked with ethanolamine. Then, purified anti-Siglec15 antibodies of the disclosure at the concentration of 13.3 nM and an anti-Siglec15 benchmark (ch5G12, also referred to as BM, see U.S. Patent Publication No. 20190202912A1, amino acid sequences of the heavy chain and light chain set forth in SEQ ID NOs: 24 and 25, respectively) at 13.3 nM, were respectively flowed onto the chip at a flow rate of 10 μL/min. Then, serially diluted recombinant human Siglec15-his protein (in house made, amino acid sequence set forth in SEQ ID NO: 20) or cynomolgus monkey Siglec15-his protein (in house made, amino acid sequence set forth in SEQ ID NO: 21), 2-fold serial dilution in HBS-EP⁺ buffer starting at 80 nM, were respectively flown onto the chip at a flow rate of 30 μL/min. The antigen-antibody association kinetics was followed for 2 minutes and the dissociation kinetics was followed for 10 minutes. The association and dissociation curves were fit to a 1:1 Langmuir binding model using BIAcore evaluation software.

[3] = biological target: T3, cynomolgus monkey Siglec15-his protein (cynomolgus monkey); assay: as above
T3 construct: In house made; also called Cynomolgus Siglec15-his; cynomolgus Siglec15
T3 chain: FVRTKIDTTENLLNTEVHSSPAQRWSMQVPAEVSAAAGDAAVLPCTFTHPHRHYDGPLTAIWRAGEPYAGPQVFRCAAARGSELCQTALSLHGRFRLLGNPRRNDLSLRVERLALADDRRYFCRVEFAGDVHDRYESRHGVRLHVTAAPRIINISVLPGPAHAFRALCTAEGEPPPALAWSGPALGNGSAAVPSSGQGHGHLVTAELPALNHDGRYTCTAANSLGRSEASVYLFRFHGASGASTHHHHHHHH
Procedure: as §1

[4] = biological target: T2, recombinant human Siglec15-his protein; assay: as above; remark: listed apart in the source
Procedure: as §1

[5] = biological target: T4, human Siglec15-Fc protein (human); assay: competitive ELISA: biotin-labeled human Siglec15-Fc in solution, competitor coated benchmark
T4 construct: In house made; also called recombinant human Siglec15 protein with human IgG1 Fc at the C-terminus
T4 sequence (chain, as listed by the source limits assumed): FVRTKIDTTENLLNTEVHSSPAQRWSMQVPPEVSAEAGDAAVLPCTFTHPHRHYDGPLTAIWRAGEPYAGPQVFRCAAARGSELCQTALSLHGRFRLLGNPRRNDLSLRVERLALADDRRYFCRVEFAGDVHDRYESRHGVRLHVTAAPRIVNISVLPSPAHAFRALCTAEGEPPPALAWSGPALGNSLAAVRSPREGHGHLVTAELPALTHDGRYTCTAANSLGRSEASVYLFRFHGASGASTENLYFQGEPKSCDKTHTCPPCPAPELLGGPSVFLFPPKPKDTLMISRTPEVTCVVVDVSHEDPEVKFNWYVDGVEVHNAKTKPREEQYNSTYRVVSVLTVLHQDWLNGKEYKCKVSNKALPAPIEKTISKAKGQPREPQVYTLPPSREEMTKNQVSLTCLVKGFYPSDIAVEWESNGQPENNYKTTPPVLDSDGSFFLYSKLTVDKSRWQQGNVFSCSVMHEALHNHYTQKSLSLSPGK
Procedure: The abilities of the anti-Siglec15 antibodies of the disclosure to block benchmark-human Siglec15 binding were measured in a competitive ELISA assay. Briefly, the benchmark was coated on 96-well micro plates at 2 μg/mL in PBS, 100 μl per well, and incubated for 2 hours at 37° C. Then plates were washed once with wash buffer, and blocked with 5% w/v non-fatty milk in PBST overnight at 4° C. The next day, the anti-Siglec15 antibodies of the disclosure or controls were diluted with biotin labeled human Siglec15-Fc protein (prepared in-house with SEQ ID NO: 19, 37 ng/ml in PBST with 2.5% w/v non-fatty milk), starting at 80 nM with a 4-fold serial dilution, and incubated at room temperature for 40 minutes. After plate washing 4 times, the antibody/Siglec15-Fc mixtures were added to benchmark coated plates, 100 μl per well. After incubation at 37° C. for 40 minutes, plates were washed 4 times again using wash buffer. Then the plates were added and incubated with 100 μl/well streptavidin conjugated HRP for 40 minutes at 37° C. Plates were washed again using wash buffer. Finally, TMB was added and the reaction was stopped using 1M H₂SO₄, and the absorbance of each well was read on a microplate reader using dual wavelength mode with 450 nm for TMB and 630 nm as the reference wavelength, then the OD (450-630) values were plotted against antibody concentration. Data was analyzed using Graphpad Prism software and IC₅₀ values were reported.

EC50 [1] [nM] | Kd [2] [nM] | koff [2] [s⁻¹] | kon [2] [M⁻¹ s⁻¹] | Kd [3] [nM] | koff [3] [s⁻¹] | kon [3] [M⁻¹ s⁻¹] | Kd [4] [nM] | koff [4] [s⁻¹] | kon [4] [M⁻¹ s⁻¹] | IC50 [5] [nM] | Binder
11.6 | 0.265 | 0.00172 | 6.51e+06 | 0.448 | 0.000788 | 1.76e+06 | 0.422 | 0.000955 | 2.27e+06 | 0.229 | anti-Siglec15 benchmark (ch5G12) (antibody, human IgG1, kappa, V domains shown, ch5G12 (US 20190202912A1); also called BM; Siglec15-ch5G9) VH: QVQLQQPGAELVKPGASVKMSCKASGYTFTSYWITWVIQRPGQGLEWIGDIYCGSDTMHYNEKFKNKATLTVDTSSSTAYMQLSSLTSEDSAVYYCARWWDYGSSYDYFDYWGQGTTLTVSS VL: DIKMTQSPSSMYASLGERVTITCKASQDINSYLSWFQQKPGKSPKTLIYRANRLVDGVPSRFSGSGSGQDYSLTISSLEYEDMGIYYCLQYDEFPYTFGGGTKLEIKR
1.17 | – | – | – | – | – | – | – | – | – | – | B2G12H3E8 (antibody, V domains shown, Mouse monoclonal antibody from hybridoma; also called mouse B2G12H3E8) VH: QVQLKQSGAELVRPGTSVQMSCKAVGYTFTNYWIGWVKQRPGHGLEWVGDIHPGINYTNNNEKFRGKATLTADTSSSTAYMQLRGLTSDDSAIYYCARVDYDYDGSYIMDYWGQGTSVTVSS VL: QIVLSQSPALLSASPGEKVTMTCRASSSVSYMYWYQQKPGSSPKPWIYATSNLTSGVPARFSGSGSGTSYSLTISRVEAEDAATYFCQQWNSKPWTFGGGSKLEIR
1.91 | – | – | – | – | – | – | – | – | – | – | B2H2H1H7 (antibody, V domains shown, Mouse monoclonal antibody from hybridoma; also called mouse B2H2H1H7; B2H2H1A7) VH: QVQLQQSGAELVRPGTSVQMSCKAAGYTFTNYWIGWVKQRPGHGLEWVGDIHPGINYTNNNEKFRGKATLTADTSSSTAYMQLRGLTSDDSAIYYCARVDYDYDGSYIMDYWGQGTSVTVSS VL: QIILSQSPALLSASPGEKVTMTCRASSSVSYMYWYQQKPGSSPKPWIYATSNLTSGVPARFSGSGSGTSYSLTISRVEAEDAATYFCQQWNSKPWTFGGGSRLEIR
– | – | – | – | – | – | – | 0.0396 | 7.46e-05 | 1.88e+06 | 0.0357 | A2A5C7E8-3 (antibody, human IgG1, kappa, V domains shown, Variant of A2A5C7E8 modified in VH CDR2 (X2 = K)) VH: EVQLVQSGAEVKKPGESLRISCKGSGYSFTTYWISWVRQMPGKGLEWMGLIDPSDSYTNYSPSFKGHVTISTDKSISTAYLQWSSLKASDTAMYYCARGGYYGSEEDYWGQGTLVTVSS VL: EIVLTQSPGTLSLSPGERATLSCRASQSVSSSRLAWFQQKSGQAPRLLIFDASSRATGIPDRFSGSGSGTDFTLTISRLEPEDFAVYYCQQYGSSPRTFGQGTKVEFKR

The next lines start with the binder.

Binder | EC50 [1] [nM] | Kd [2] [nM] | koff [2] [s⁻¹] | kon [2] [M⁻¹ s⁻¹] | Kd [3] [nM] | koff [3] [s⁻¹] | kon [3] [M⁻¹ s⁻¹] | Kd [4] [nM] | koff [4] [s⁻¹] | kon [4] [M⁻¹ s⁻¹] | IC50 [5] [nM]
B2D7H7A3C1 (antibody, V domains shown, Mouse monoclonal antibody from hybridoma; also called mouse B2D7H7A3C1) VH: QVQLQQSGAELVRPGTSVQMSCKAAGYTFTNYWIGWVKQRPGHGLEWVGDIHPGINYTNNNEKFRGKATLTADTSSNTAYMQLRGLTSDDSAIYYCARVDYDYDGSYIMDYWGQGTSVTVSS VL: QIVLSQSPALLSASPGEKVTMTCRASSSVSYMYWYQQKPGSSPKPWIYATSNLTSGVPARFSGSGSGTSYSLTISRVEAEDAATYFCQQWNSKPWTFGGGSKLEIR | 0.998 | – | – | – | – | – | – | – | – | – | –
A2A5C7E8 (antibody, V domains shown, Fully human antibody from transgenic mouse hybridoma; also called A2A5C7E8-1) VH: EVQLVQSGAEVKKPGESLRISCKGSGYSFTTYWISWVRQMPGKGLEWMGLIDPSDSYTNYSPSFQGHVTISTDKSISTAYLQWSSLKASDTAMYYCARGGYYGSEEDYWGQGTLVTVSS VL: EIVLTQSPGTLSLSPGERATLSCRASQSVSSSRLAWFQQKSGQAPRLLIFDASSRATGIPDRFSGSGSGTDFTLTISRLEPEDFAVYYCQQYGSSPRTFGQGTKVEFK | – | 0.041 | 9.98e-05 | 2.43e+06 | 0.0681 | 8.49e-05 | 1.25e+06 | 0.0383 | 7.45e-05 | 1.94e+06 | 0.0387
A2A5C7E8-2 (antibody, human IgG1, kappa, V domains shown, Variant of A2A5C7E8 modified in VH CDR2 (X1 = E)) VH: EVQLVQSGAEVKKPGESLRISCKGSGYSFTTYWISWVRQMPGKGLEWMGLIDPSESYTNYSPSFQGHVTISTDKSISTAYLQWSSLKASDTAMYYCARGGYYGSEEDYWGQGTLVTVSS VL: EIVLTQSPGTLSLSPGERATLSCRASQSVSSSRLAWFQQKSGQAPRLLIFDASSRATGIPDRFSGSGSGTDFTLTISRLEPEDFAVYYCQQYGSSPRTFGQGTKVEFKR | – | – | – | – | – | – | – | 0.164 | 0.000273 | 1.66e+06 | 0.0178
A1E10G7H9 (antibody, V domains shown, Fully human antibody from transgenic mouse hybridoma) VH: QVQLQESGPGLVKPSGTLSLTCAVSGGSISSSNWWHWVRQPPGKGLEWIGEIYHSGNTNYKPSLKSRVTISVDKSKNQFSLKLSSVTAADTAVYYCARDEGNGWSNAFDIWGQGTMVTVSS VL: ENVLTQSPGTLSLSPGERVTLSCRASQSVSSSYLAWYQQKPGQAPRFLIYGASGGATGIPDRFSGSGSGTDFTLTISRLEPEDFAVYYCQQYGSSPITFGQGTRLEIK | – | 0.0139 | 0.0001 | 7.18e+06 | 0.0269 | 0.000104 | 3.89e+06 | – | – | – | –
